Measurements as given in patent US20230034906A1 (TRINOMAB BIOTECH, published 2023).

What was measured:
Assay in all cases: indirect ELISA, antibody titrated on gB glycoprotein mutant
[1] = target: T1, gB_Towne protein with N447 mutated into glutamine (human cytomegalovirus, strain Towne, UniProt F5HB53 25-700)
T1 chain: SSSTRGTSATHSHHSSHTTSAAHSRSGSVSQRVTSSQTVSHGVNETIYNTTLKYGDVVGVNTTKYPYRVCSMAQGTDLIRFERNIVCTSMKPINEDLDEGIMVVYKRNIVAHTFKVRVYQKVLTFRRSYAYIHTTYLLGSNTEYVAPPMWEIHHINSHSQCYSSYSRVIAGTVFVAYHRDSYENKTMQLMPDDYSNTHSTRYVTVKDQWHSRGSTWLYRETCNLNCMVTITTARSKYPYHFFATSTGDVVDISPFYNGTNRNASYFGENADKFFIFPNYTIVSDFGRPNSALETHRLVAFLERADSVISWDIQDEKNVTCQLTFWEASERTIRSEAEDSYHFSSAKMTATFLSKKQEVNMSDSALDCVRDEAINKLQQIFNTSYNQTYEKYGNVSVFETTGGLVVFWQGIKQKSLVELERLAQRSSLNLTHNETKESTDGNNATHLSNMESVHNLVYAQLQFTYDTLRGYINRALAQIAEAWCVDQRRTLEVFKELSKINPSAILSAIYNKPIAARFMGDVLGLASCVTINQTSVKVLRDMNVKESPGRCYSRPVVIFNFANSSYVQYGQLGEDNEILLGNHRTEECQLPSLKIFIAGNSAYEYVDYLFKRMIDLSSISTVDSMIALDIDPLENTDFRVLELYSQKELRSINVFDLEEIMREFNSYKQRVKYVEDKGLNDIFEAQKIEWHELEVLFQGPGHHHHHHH

[2] = target: T2, gB_Towne protein with N417 mutated into glutamine (human cytomegalovirus, strain Towne, UniProt F5HB53 25-700)
T2 chain: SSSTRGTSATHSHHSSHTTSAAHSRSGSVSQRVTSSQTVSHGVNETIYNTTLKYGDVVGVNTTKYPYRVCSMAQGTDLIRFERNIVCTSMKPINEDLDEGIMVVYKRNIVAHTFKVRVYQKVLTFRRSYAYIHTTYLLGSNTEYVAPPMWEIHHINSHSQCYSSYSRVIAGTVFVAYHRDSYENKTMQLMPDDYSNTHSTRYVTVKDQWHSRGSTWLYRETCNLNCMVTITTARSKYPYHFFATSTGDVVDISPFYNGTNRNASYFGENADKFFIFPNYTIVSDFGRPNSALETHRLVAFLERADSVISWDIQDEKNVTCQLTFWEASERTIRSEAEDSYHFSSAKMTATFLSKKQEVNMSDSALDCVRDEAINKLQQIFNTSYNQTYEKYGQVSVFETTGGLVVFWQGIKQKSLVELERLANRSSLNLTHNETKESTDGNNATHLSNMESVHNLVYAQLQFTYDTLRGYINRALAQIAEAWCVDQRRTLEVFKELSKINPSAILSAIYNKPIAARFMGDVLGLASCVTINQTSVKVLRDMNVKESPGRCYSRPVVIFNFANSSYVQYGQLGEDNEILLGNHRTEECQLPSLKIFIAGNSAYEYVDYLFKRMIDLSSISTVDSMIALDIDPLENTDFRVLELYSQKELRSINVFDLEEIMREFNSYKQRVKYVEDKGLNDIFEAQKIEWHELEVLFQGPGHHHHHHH

[3] = target: T3, gB_Towne protein with N341 mutated into glutamine (human cytomegalovirus, strain Towne, UniProt F5HB53 25-700)
T3 chain: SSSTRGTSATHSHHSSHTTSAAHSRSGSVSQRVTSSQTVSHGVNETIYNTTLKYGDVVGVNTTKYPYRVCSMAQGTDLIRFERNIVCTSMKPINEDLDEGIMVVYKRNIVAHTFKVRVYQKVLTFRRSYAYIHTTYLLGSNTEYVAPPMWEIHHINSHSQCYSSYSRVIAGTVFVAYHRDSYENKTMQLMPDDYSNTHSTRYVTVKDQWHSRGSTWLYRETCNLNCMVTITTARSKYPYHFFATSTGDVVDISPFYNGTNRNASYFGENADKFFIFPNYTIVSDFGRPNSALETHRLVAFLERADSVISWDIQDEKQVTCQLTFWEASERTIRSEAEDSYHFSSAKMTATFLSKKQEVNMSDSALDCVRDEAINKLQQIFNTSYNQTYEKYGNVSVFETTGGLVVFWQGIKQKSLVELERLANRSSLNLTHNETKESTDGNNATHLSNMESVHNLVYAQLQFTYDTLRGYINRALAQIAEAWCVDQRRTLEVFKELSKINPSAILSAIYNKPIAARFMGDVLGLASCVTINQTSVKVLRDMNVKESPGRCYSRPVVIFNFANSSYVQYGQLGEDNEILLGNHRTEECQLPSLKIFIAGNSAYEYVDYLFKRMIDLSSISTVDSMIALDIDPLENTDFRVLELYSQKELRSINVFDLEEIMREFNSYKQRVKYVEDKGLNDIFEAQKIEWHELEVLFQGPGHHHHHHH

[4] = target: T4, gB_Towne protein with N456 mutated into glutamine (human cytomegalovirus, strain Towne, UniProt F5HB53 25-700)
T4 chain: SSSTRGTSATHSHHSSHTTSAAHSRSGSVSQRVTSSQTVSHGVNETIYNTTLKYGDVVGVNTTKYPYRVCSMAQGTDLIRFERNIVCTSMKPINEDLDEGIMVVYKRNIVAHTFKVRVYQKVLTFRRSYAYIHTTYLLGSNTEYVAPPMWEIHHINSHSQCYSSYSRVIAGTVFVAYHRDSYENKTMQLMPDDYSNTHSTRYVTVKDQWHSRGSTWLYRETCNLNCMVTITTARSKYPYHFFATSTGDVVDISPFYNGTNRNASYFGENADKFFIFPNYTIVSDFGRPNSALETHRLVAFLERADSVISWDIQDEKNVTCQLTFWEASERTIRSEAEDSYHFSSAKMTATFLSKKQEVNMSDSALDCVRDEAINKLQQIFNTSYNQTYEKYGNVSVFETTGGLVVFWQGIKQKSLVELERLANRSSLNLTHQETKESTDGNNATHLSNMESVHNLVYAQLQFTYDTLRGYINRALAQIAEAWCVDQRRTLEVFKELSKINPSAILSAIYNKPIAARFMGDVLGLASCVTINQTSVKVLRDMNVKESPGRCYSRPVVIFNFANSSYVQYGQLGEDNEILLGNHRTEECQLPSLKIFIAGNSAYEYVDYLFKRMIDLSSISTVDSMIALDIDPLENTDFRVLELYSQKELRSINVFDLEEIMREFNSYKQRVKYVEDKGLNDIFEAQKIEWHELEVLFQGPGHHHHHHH

Measured: binding result

B1: TRN1019 (antibody, V domains shown)
VH: QVQLVQSGAEVKKPGESLKISCKGSGYTFTNYWIGWVRQMPGAGLEWMAIIFPRDSYSAYSPSFQGRVTISVDKSISTAYLHWSSLEASDTAVYYCAIYNDLRSGNSWGQGTPLIVSS
VL: DIQMTQSPSSLSASVGDRVTITCRASQSITKYLNWYQQKPGRAPKLLIHTTSTLQSGVPSRFSGSGSGTDFTLTISSLQLEDFGTYYCQQSFSTLWTFGQGTKLDIKR
notes: Fully human antibody; kappa light chain
binds: all assays above
